Test results: FireProtDB
Several values for one entry are separate records, joined by “and”; a condition that tells them apart may be missing. Equal entries are not always repeated.

B1: Glutamate dehydrogenase, P96110 (parent)
chain: MPEKSLYEMAVEQFNRAASLMDLESDLAEVLRRPKRVLIVEFPVRMDDGHVEVFTGYRVQHNVARGPAKGGIRYHPDVTLDEVKALAFWMTWKTAVMNLPFGGGKGGVRVDPKKLSRNELERLSRRFFSEIQVIIGPYNDIPAPDVNTNADVMAWYMDTYSMNVGHTVLGIVTGKPVELGGSKGREEATGRGVKVCAGLAMDVLGIDPKKATVAVQGFGNVGQFAALLISQELGSKVVAVSDSRGGIYNPEGFDVEELIRYKKEHGTVVTYPKGERITNEELLELDVDILVPAALEGAIHAGNAERIKAKAVVEGANGPTTPEADEILSRRGILVVPDILANAGGVTVSYFEWVQDLQSFFWDLDQVRNALEKMMKGAFNDVMKVKEKYNVDMRTAAYILAIDRVAYATKKRGIYP
B2: Serine hydroxymethyltransferase, P0A825 (parent)
chain: MLKREMNIADYDAELWQAMEQEKVRQEEHIELIASENYTSPRVMQAQGSQLTNKYAEGYPGKRYYGGCEYVDIVEQLAIDRAKELFGADYANVQPHSGSQANFAVYTALLEPGDTVLGMNLAHGGHLTHGSPVNFSGKLYNIVPYGIDATGHIDYADLEKQAKEHKPKMIIGGFSAYSGVVDWAKMREIADSIGAYLFVDMAHVAGLVAAGVYPNPVPHAHVVTTTTHKTLAGPRGGLILAKGGSEELYKKLNSAVFPGGQGGPLMHVIAGKAVALKEAMEPEFKTYQQQVAKNAKAMVEVFLERGYKVVSGGTDNHLFLVDLVDKNLTGKEADAALGRANITVNKNSVPNDPKSPFVTSGIRVGTPAITRRGFKEAEAKELAGWMCDVLDSINDEAVIERIKGKVLDICARYPVYA
B3: Subtilisin-chymotrypsin inhibitor-2A, P01053 (parent)
chain: MSSVEKKPEGVNTGAGDRHNLKTEWPELVGKSVEEAKKVILQDKPEAQIIVLPVGTIVTMEYRIDRVRLFVDKLDNIAQVPRVG
B4: Phenylalanine--tRNA ligase, mitochondrial, O95363 (parent)
chain: MVGSALRRGAHAYVYLVSKASHISRGHQHQAWGSRPPAAECATQRAPGSVVELLGKSYPQDDHSNLTRKVLTRVGRNLHNQQHHPLWLIKERVKEHFYKQYVGRFGTPLFSVYDNLSPVVTTWQNFDSLLIPADHPSRKKGDNYYLNRTHMLRAHTSAHQWDLLHAGLDAFLVVGDVYRRDQIDSQHYPIFHQLEAVRLFSKHELFAGIKDGESLQLFEQSSRSAHKQETHTMEAVKLVEFDLKQTLTRLMAHLFGDELEIRWVDCYFPFTHPSFEMEINFHGEWLEVLGCGVMEQQLVNSAGAQDRIGWAFGLGLERLAMILYDIPDIRLFWCEDERFLKQFCVSNINQKVKFQPLSKYPAVINDISFWLPSENYAENDFYDLVRTIGGDLVEKVDLIDKFVHPKTHKTSHCYRITYRHMERTLSQREVRHIHQALQEAAVQLLGVEGRF
B5: Tetracycline repressor protein class D, P0ACT4 (parent)
chain: MARLNRESVIDAALELLNETGIDGLTTRKLAQKLGIEQPTLYWHVKNKRALLDALAVEILARHHDYSLPAAGESWQSFLRNNAMSFRRALLRYRDGAKVHLGTRPDEKQYDTVETQLRFMTENGFSLRDGLYAISAVSHFTLGAVLEQQEHTAALTDRPAAPDENLPPLLREALQIMDSDDGEQAFLHGLESLIRGFEVQLTALLQIVGGDKLIIPFC
B6: Lipase B, P41365 (parent)
chain: MKLLSLTGVAGVLATCVAATPLVKRLPSGSDPAFSQPKSVLDAGLTCQGASPSSVSKPILLVPGTGTTGPQSFDSNWIPLSTQLGYTPCWISPPPFMLNDTQVNTEYMVNAITALYAGSGNNKLPVLTWSQGGLVAQWGLTFFPSIRSKVDRLMAFAPDYKGTVLAGPLDALAVSAPSVWQQTTGSALTTALRNAGGLTQIVPTTNLYSATDEIVQPQVSNSPLDSSYLFNGKNVQAQAVCGPLFVIDHAGSLTSQFSYVVGRSALRSTTGQARSADYGITDCNPLPANDLTPEQKVAAAALLAPAAAAIVAGPKQNCEPDLMPYARPFAVGKRTCSGIVTP
B7: Beta-lactoglobulin, P02754 (parent)
chain: MKCLLLALALTCGAQALIVTQTMKGLDIQKVAGTWYSLAMAASDISLLDAQSAPLRVYVEELKPTPEGDLEILLQKWENGECAQKKIIAEKTKIPAVFKIDALNENKVLVLDTDYKKYLLFCMENSAEPEQSLACQCLVRTPEVDDEALEKFDKALKALPMHIRLSFNPTQLEEQCHI
B8: Cytochrome c2, P00094 (parent)
chain: MKISLTAATVAALVLAAPAFAGDAAKGEKEFNKCKTCHSIIAPDGTEIVKGAKTGPNLYGVVGRTAGTYPEFKYKDSIVALGASGFAWTEEDIATYVKDPGAFLKEKLDDKKAKTGMAFKLAKGGEDVAAYLASVVK
B9: Gamma-crystallin S, P22914 (parent)
chain: MSKTGTKITFYEDKNFQGRRYDCDCDCADFHTYLSRCNSIKVEGGTWAVYERPNFAGYMYILPQGEYPEYQRWMGLNDRLSSCRAVHLPSGGQYKIQIFEKGDFSGQMYETTEDCPSIMEQFHMREIHSCKVLEGVWIFYELPNYRGRQYLLDKKEYRKPIDWGAASPAVQSFRRIVE
B10: Growth factor receptor-bound protein 2, Q08012 (parent)
chain: MEAIAKHDFSATADDELSFRKTQILKILNMEDDSNWYRAELDGKEGLIPSNYIEMKNHDWYYGRITRADAEKLLSNKHEGAFLIRISESSPGDFSLSVKCPDGVQHFKVLRDAQSKFFLWVVKFNSLNELVEYHRTASVSRSQDVKLRDMIPEEMLVQALYDFVPQESGELDFRRGDVITVTDRSDENWWNGEIGNRKGIFPATYVTPYHS
B11: Triosephosphate isomerase, glycosomal, P04789 (parent)
chain: MSKPQPIAAANWKCNGSQQSLSELIDLFNSTSINHDVQCVVASTFVHLAMTKERLSHPKFVIAAQNAIAKSGAFTGEVSLPILKDFGVNWIVLGHSERRAYYGETNEIVADKVAAAVASGFMVIACIGETLQERESGRTAVVVLTQIAAIAKKLKKADWAKVVIAYEPVWAIGTGKVATPQQAQEAHALIRSWVSSKIGADVAGELRILYGGSVNGKNARTLYQQRDVNGFLVGGASLKPEFVDIIKATQ

Variants of: B1
Conditions: Thermotoga maritima (strain ATCC 43589 / DSM 3109 / JCM 10099 / NBRC 100826 / MSB8); pH 7.4; Thermal; DSC; Sodium phosphate 20 mM; reversible: no; structure 1B26; whole UniProt chain shown
For T159E, the Tm was 83.1 °C.

Variants of: B2
Conditions: Escherichia coli (strain K12); pH 7.5; 30 °C; Urea; Fluorescence; Tris-HCl 20 mM; structure 1DFO; whole UniProt chain shown
W16F W183F showed an unfolding free energy of 5.9 kcal/mol. In the case of W16Y, the unfolding free energy is reported as 3.7 kcal/mol. For W385F, the unfolding free energy was 4 kcal/mol.

Same assay, conditions: Escherichia coli (strain K12); pH 7.5; 30 °C; Urea; Fluorescence; Tris-HCl 20 mM; transition: 3; structure 1DFO; whole UniProt chain shown
In the case of W183F W385F, the unfolding free energy is reported as 4.2 kcal/mol and 5.5 kcal/mol.

Variants of: B3
Conditions: Hordeum vulgare; pH 6.3; 25 °C; GdnHCl; Fluorescence; MES 50 mM; structure 2CI2; whole UniProt chain shown
For P53E F70A, the unfolding free energy was 2.61 kcal/mol. In the case of L21M, the unfolding free energy is reported as 7.3 kcal/mol.

Same assay, conditions: Hordeum vulgare; pH 4.2; 50 °C; GdnHCl; Fluorescence; Sodium acetate 50 mM; reversible: yes; structure 2CI2; whole UniProt chain shown
In the case of R68A, the “ddG of mutation (higher = less stable)” value is reported as 1.4 kcal/mol and the unfolding free energy is reported as 4.1 kcal/mol.

Same assay, conditions: Hordeum vulgare; pH 7; 30 °C; GdnHCl; Fluorescence; MOPS 50 mM; structure 2CI2; whole UniProt chain shown
For I40L, the “ddG of mutation (higher = less stable)” value was 1.96 kcal/mol, the denaturant m value was 1.92 kcal/mol/M and the unfolding free energy was 5.09 kcal/mol. With I40V the “ddG of mutation (higher = less stable)” value was 1.17 kcal/mol, the denaturant m value was 1.92 kcal/mol/M and the unfolding free energy was 5.88 kcal/mol.

Variants of: B4
Conditions: Homo sapiens; pH 7.5; 25 °C; Urea; CD; Tris-HCl 50 mM; transition: 2; structure 3CMQ; whole UniProt chain shown
In the case of N280S, the “ddG of mutation (higher = less stable)” value is reported as -0.51 kcal/mol and the “denaturant midpoint (higher = more stable)” value (“denaturant midpoint” for short) is reported as 5.7 M. With S57C the “ddG of mutation (higher = less stable)” value was -0.43 kcal/mol and the “denaturant midpoint” value was 5.9 M. With S57C N280S the “ddG of mutation (higher = less stable)” value was 3.03 kcal/mol and the “denaturant midpoint” value was 7.9 M.

Variants of: B5
Conditions: Escherichia coli; pH 7.5; 22 °C; Urea; CD; Tris-HCl 50 mM; NaCl 150 mM; reversible: yes(92%); structure 2TRT; whole UniProt chain shown
For R128E, the “denaturant midpoint” value was 4.9 M.

Variants of: B6
Conditions: Pseudozyma antarctica; pH 7; Thermal; CD; Tris-HCl 50 mM; reversible: No; structure 1TCA; whole UniProt chain shown
With V246D the Tm was 55.7 °C and the “change of melting temperature, mutant - wild type (higher = more stable)” value (from here on “change of melting temperature, mutant”) was -2 °C. With V235I the Tm was 58.5 °C and the “change of melting temperature, mutant” value was 0.8 °C. In the case of V235I A306E, the Tm is reported as 52.1 °C and the “change of melting temperature, mutant” value is reported as -5.6 °C.

Same assay, conditions: Pseudozyma antarctica; pH 7; Thermal; Differential Scanning Fluorimetry; HEPES 10mM; structure 1TCA; whole UniProt chain shown
With N194C F329C the Tm was 56.3 °C and the “change of melting temperature, mutant” value was 1.5 °C. For A187C K333C, the Tm was 55.9 °C and the “change of melting temperature, mutant” value was 1.1 °C. For Q181C L188C, the Tm was 46.1 °C and the “change of melting temperature, mutant” value was -8.7 °C.

Variants of: B7
Conditions: Bos taurus; pH 7.1; 30 °C; GdnHCl; CD; phosphate 0.11 M; NaCl 0.04 M; structure 1B0O; whole UniProt chain shown
With W35Y the “ddG of mutation (higher = less stable)” value was 6.91 kcal/mol and the unfolding free energy was 4.3 kcal/mol.

Variants of: B8
Conditions: Rhodobacter capsulatus (strain ATCC BAA-309 / NBRC 16581 / SB1003); pH 7.5; 30 °C; GdnHCl; CD; Tris 20 mM; structure 1C2R; whole UniProt chain shown
In the case of P56A, the “denaturant midpoint” value is reported as 0.9 M. For G55S, the “denaturant midpoint” value was 0.86 M.

Variants of: B9
Conditions: Homo sapiens; pH 7.4; Thermal; Fluorescence; Disodium phosphate; NaCl; structure 6FD8; whole UniProt chain shown
In the case of S39C, the Tm is reported as 61.3 °C and 58.8 °C and the “change of melting temperature, mutant” value is reported as -6.2 °C and -7 °C.

Variants of: B10
Conditions: Drosophila melanogaster; pH 6; 20 °C; GdnHCl; Fluorescence; phosphate 50 mM; structure 2A36; whole UniProt chain shown
With T22G the “ddG of mutation (higher = less stable)” value was -3.6 kcal/mol, the denaturant m value was 2.2 kcal/mol/M and the unfolding free energy was 4 kcal/mol.

Variants of: B11
Conditions: Trypanosoma brucei brucei; pH 7.4; Thermal; CD; MOPS 20 mM; EDTA 1 mM; reversible: no; structure 1TPE; whole UniProt chain shown
For C14F, the Tm was 46.5 °C and the “change of melting temperature, mutant” value was -4.9 °C.

Same assay, conditions: Trypanosoma brucei brucei; pH 7; Thermal; CD; 3-(N-morpholino)propanesulfonic acid/dithiothreitol 20 mM/0.02 mM; EDTA 0.02 mM; structure 3TIM; whole UniProt chain shown
With R191A the Tm was 47.3 °C. In the case of R191S, the Tm is reported as 51.6 °C. Variant D227A has a Tm of 48.7 °C. D227N showed a Tm of 49.3 °C.

Same assay, conditions: Trypanosoma brucei brucei; pH 7; Thermal; CD; MOPS 20 mM; reversible: no; structure 1TPE; whole UniProt chain shown
For T75R G76Q, the Tm was 52 °C and the “change of melting temperature, mutant” value was -5 °C.
